According to the supplement of paper PMC9170038:

Test system: K4 kissing-loop RNA reporter
Experiment: apparent KD of K4 kissing-loop reporter; higher = weaker reporter binding
Conditions: Eterna round: R107
Method: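 RNA-MaP round R107: designed RNA switches with theophylline, tryptophan, arginine or FMN aptamers are transcribed on-chip within common flanks. They are titrated with a labelled K4 kissing-loop RNA reporter in RNA-MaP buffer (100 mM Tris pH 7.5, 80 mM KCl, 4 mM MgCl2), without ligand or with the indicated ligand. Median apparent KD per design.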

[1] = input ligand: theophylline 20 uM
[2] = input ligand: tryptophan 2.4 mM
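Note: bound reporter read as fluorescence of individual clusters on recovered sequencing chips by microscopy, with normalized cluster intensities fitted with a binding model.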

Sequence	apparent KD of K4 kissing-loop reporter (input ligand: FMN 200 uM) [nM]	apparent KD of K4 kissing-loop reporter (input ligand: arginine 13.2 mM) [nM]	apparent KD of K4 kissing-loop reporter (input ligand: none) [nM]	apparent KD of K4 kissing-loop reporter [1] [nM]	apparent KD of K4 kissing-loop reporter [2] [nM]
CUCAAACCGUGGGCAUUUCGCAAAGUAGAUACCAGUCGCAACGGUGACCCUUGGCAGCUAGUAAAGUGAUGUUUUAUCGGCACCA [theeternabot_exclusion_KL_Theo_A_35]	78.4	80.4	78	78.6	69.1
GCCGUAGAUGGAAGGAGCGUGGUAGACUGUUGAAGUGAUGUUUCAACUCAUUAAGCCCAACCACAGGUAGGUCGCCAUCUACGGC	133	107	107	112	120
UAUUCUAAUGCGGCCGCCACUGGAAGUGAUGUUUCCUCUGGCUAUCAUUUCGGACGGUAUUGUCCCAGGACCGGGCAUCCCUCUC [theeternabot_exclusion_KL_Trp_B_4]	109	101	106	104	103
AAACAUUGGUCUGAUACCAGUUAGACCGAUAGGUCAAAACUGGAGUGAUGUUCCUAAAAUAACCCUUGGCAGCAGACCGAUGAAA [MAT - Same State Theophlline B - Mod of Eli - D4]	3640	285	596	439	552
UGGGUGUAGUGAUGUUAUAUAGAGAGUGAUACCAGUUUAGAGAGGAACCCUUGGCAGCAUAGAAGAGUAUCAUUGGAGGAGGAGG [ExTheophyl.Aw]	677	505	696	606	433
AAUGAUGAUUGACACAUUUACUAAAAGGAAGGAGCGGCGAUGUGGCCAGGUAGGUCGCCUUUUAGCAGUGAUGUUGCUAUAUGUU [JR_Nu_ExcArginiA_Sub026]	84.5	108	111	152	70.4
UGACUGGAUGGAAGGAGCGCUAAACUCCUAGUGAUGUUAGGGACACGAGACAAAGUCUCGAAGCAGGUAGGUCGCCAUCUAGUCU [FiskerMod 13 - Jieux - Same State - Arginine B]	219	156	160	352	166
GGGAAGGGACACAAGGAGGAACGAAGGGAAGGAGCGCCGGAGGAGGCAGGUAGGUCGCCCAACCAGUGAUGUUGGAAUUUAAUCC [Default title]	242	125	287	114	196
AGAGAUAUAUGAGGAUAUGAGAUAGUUAAUGAGUGAGUUUUAGUGUUGUUUGGUUAGUGAUGUUAUUUAGAAGGCGUGAGUGAUG [grrfullin]	97.7	66.5	70.2	80	65.7
AAGAGCUAGGCGGCCGCCACUAGUUGUGAACACGUACAAGCCAGUGAUGUUGGUAUGAUGGACGGUAGGACCGGGCCUAGCUGAA [Exclusion - Tryptophan B (Freestyle 14)]	227	271	276	267	294
UGUAUGGACUGAAGGAGCGCUAGGAGUGUGAGUGAUGUUCAUACAAAUGUAUAGAUGGUCUGGCAGGUAGGUCGCAGUCCAUACU [KL-SSArg B4]	258	145	203	156	184
CACUUACGUAGUGAUGUUACGAUCUCUGAUACCAGACAACUCUAAGUCCCUUGGCAGCAGUCAUUUUGCUUAUUAUUUACUCAAA [JR_ExcTheophyA_Sub017]	647	597	730	663	456
AAGGUUGUGCAUGGGAGUGAUGUUCCCAAGCAGGAUAUCGCUCACGCGAGAAGGGCUAGCACAACCGCUCAAGAAACUUGAGCAA [Omei KL FMN A SS C v5]	121	118	147	132	120
AAAACUCGGUAGUGAUGUUAUUGAGUGAACAAGGAUAUCUAUGAUAAGAGAAGGUGUAAGUUAAGCGUAUUUCGGCCUGUACAAU [theeternabot_sameState_KL_FMN_A_34]	115	101	114	106	103
UCACAGUCCAAAGGAUAUUGAGUGCGCGUGCGAUUUAAGCUGAAGCCGUAGCUAGUGAUGUUAGCCCAAGAAGGUUGGUAGCCAG [theeternabot_exclusion_KL_FMN_B_16]	136	128	140	193	115
ACGCGCGAGACGGCCGCCACUAUACGUCGAGUGAUGUUCGAGCCAAGAUGUCGUUACGUUUAUAAUAGGACCGGGUCAAUGGAUU [theeternabot_sameState_KL_Trp_B_19]	596	512	583	661	513
GUAUCGCUAGGAGGAUAUUUCAUAUAACAUAUAAAUGGAUAUGCGGAGUGAUGUUCCGAUUUACGGAAAGAAGGCCUAGUGAUAC [FMN B 19]	119	172	192	207	172
AGGAUGUAGUGAUGUUAUAUAAGAAGUAAACGAGGACCGGUACGGCCGCCACUCGAAGCGGCUACUAGCGCGCGCGCGCGCGCGC [ExTryptoA.Ca]	298	345	263	336	259
AAUAAGGUCGCCGAUACCAGCGCGGGCAGAGCAAAGCUCUGCCCGGUAGUGAUGUUACCGCGCCCUUGGCAGCGGUGGCACGACC [Omei KL Theo B SS C v6]	152	58.3	126	159	63.3
AAGUGUGUGGCGGCCGCCACUAGAAUCCAGUGAUGUUGGAGUAAUCAAAUAAAUGAUAAUCAACAUAGGACCGGGCCAUAUAGAA [Same State - Tryptophan B (Freestyle 3)]	345	307	349	351	309
UCGAAGGAUGGAAGGAGCGCUCGUCAGUCCUGCGAGUGAUGUUCGUGGGUAAAUAUUCGCGAGCAGGUAGGUCGCCAUCUUGAGA [Laatla]	135	96.7	112	108	129
AAUUCUUAUCUUAGUAGAUUUCUAAUUAAACGAGGACCGGUACGGCCGCCACUCGGUUAUGAGUGAUGUUCAUGGAAUUACAUAA [JR_SSTryptoA_Sub018]	285	486	467	486	172

Sequence	apparent KD of K4 kissing-loop reporter (input ligand: FMN 200 uM) [nM]	apparent KD of K4 kissing-loop reporter (input ligand: arginine 13.2 mM) [nM]	apparent KD of K4 kissing-loop reporter (input ligand: none) [nM]	apparent KD of K4 kissing-loop reporter [1] [nM]	apparent KD of K4 kissing-loop reporter [2] [nM]
AGGUUUUGAUUAGGAUAUGCACUGAGGAGGAGAAUAUAGUGAUGUUAUAUAAGAGGAAGUAGUAGAGUAGAAGGGAUUGAGGUUU [SSFMNB.S]	208	167	224	210	158
CGCAAGCAGCCAGUGAUGUUGGCCGCCUUGCGAGGACCGGUACGGCCGCCACUCGAAGGCGGCUACUGAUAAUCCGUCUAACGGA [KL-XTryp-A15]	107	85.4	102	92.4	111
GGACAACUAUGUCCCAUACAAACAAGAGAUACCAGCCAUCAUAGAGGCCCUUGGCAGCUCAUAUAAUCCAGUGAUGUUGGAUUUC [Atgebeus]	165	215	179	149	148
UCCUAGGACUUCAGGCGAAAGCCCUGCGAAGGAGCGUGCGAAAGCACAGGUAGGUCGCGCAGUGAUGUUGCACCUAGGUAAUAAA [#SwitchBubble 20 #K4Late]	481	656	489	1020	124
GGAGGAGAAUAUGAUACCAGCAGAGAGAGAUACGAAGUAUAGUGAUGUUAUAUGAGAGAAUGCCCUUGGCAGCAUAAGACGCAGG [#08 K4 Theophylline B Same State]	86	83.3	116	95	84.8
UGAUAGGACAGAAGGAGCGGAAUGCUAGUCAAAGACUAGCAACGUUAAACAGGAGUGAUGUUCCAGGUAGGUCGCUGUCCUAUCU [ArgBX 22 #SwitchBubble #StaticStem]	143	124	135	140	113
GGGCGUGGCGCGGCCGCCACUGGGCCUGGGUGCUCGCUGAGUGAUGUUCGUCGGCGGUUGGGUCGUAGGACCGGGUGCUGGUUGG [BDazzled - #9 SS Tryptophan B]	771	347	607	447	575
CUUAUGGACUAAGGAUAUGGGUAUACCGGAAGCGCCGUCACGGUAGUGAUGUUACACGCGACGGGACCAGAAGGUAGAUCGCUCC [theeternabot_exclusion_KL_FMN_B_33]	73.9	96.2	101	71.3	85.5
UAAUAAUAAUGAUAAUAAUCAAGUGGUGGACGAGGACCGGUACGGCCGCCACUCGAAAAUGCAGUGAUGUUGUAAUACGGAUAAU [Exclusion - Tryptophan A (Freestyle 2)]	98.3	180	133	203	94.3
CACUCGGUAUCAGAUACCAGACUAUCGAUACCGAGUGUAUCGGGUAGUGAUGUUACCAUAGUCCCUUGGCAGCUGAUAUUGCAUA [Theo B SS t9b]	73.3	94.1	71.7	87.7	59.2
AUGAGGAGCAGUGAUCCUACUCCAUGGGAAGGAGCGUAGGAUACUACAGGUAGGUCGCCCAGUGAUGUUGGGCGCGUGCUCUUGG [Isatquesra]	140	130	135	148	150
AGGGAUGUUAAAGGAUAUAGAAAGUGAUGUUAGAAAGUGAGUGAUGUUGAUGUAAGUGAUGAUAUGUUAGAAGGUUAACAAAACG [abc]	212	111	192	169	144
AGACCUCAGUGAUGUUGAGGUAACACUGAUACCAGCGACUUAAUUCGCCCUUGGCAGCAGUCCACCGAGGUAUCUGAUUAGGUCA [#24 K4 Theophylline A Exclusion]	171	173	179	273	155
CACCCAGUCCUCGAUACCAGACUGGCACGUCAAAAGGUCCAGUGAUGUUGAGCCUAACAAGUCCCUUGGCAGCGACCAGUGUAUU [theeternabot_exclusion_KL_Theo_B_30]	680	573	729	619	623
AGACUACUGACAGGAUAUAACAUCCUGGUCGUAUACCGAAAGGUAUACGAUUUCCUUCUAGUGAUGUUAGAAGGGUCGGUAGUCA [Omei KL FMN B Exc B v14]	103	78	90.7	70.3	82.9
UGAUUGAACUGAAGGAGCGGCAAGAGAGAAGGAAAUAUAGUGAUGUUAUAUAAGAGAGAGAGCCAGGUAGGUCGCAGAGGGAGGA [ExArgB.D]	198	113	159	134	151
CCCAAGGGCCUACCGGUAUGAUGGACGGAUACCAGAGGCGAAAGCCUCCCUUGGCAGCCGGGUGUAGUGAUGUUACUCCGGUAGU	75.1	65.8	75	78.9	72
UGUGGAGAAUAUGAUACCAGCAGAGAGAGAGAGGAAGUAUAGUGAUGUUAUAUGAGAGAAUGCCCUUGGCAGCAUAAGAAGAAGG [SSTheophylB.C]	144	119	140	216	192
GGCAUAUGGGCAGGAUAUAGGCAGGUAGAGUGAUGUUCUUUCUGAAUAAUUCCAUCCUUCUACCUACUAGAAGGGCCCAUAUGCC	56.5	106	68.7	110	67.9
CAUAGACAAGUGAUGUUUGUCAUAACCGAAGGAGCGUCGUUGAAGACAGGUAGGUCGCGGAUUAAUUAAGAUUAUAUUCUUUUUA [JR_SSArginiA_Sub019]	605	485	634	624	505
UGAUUGGCAAAAGUAGUGAUGUUACGAAUAUAGGAUAUUAGAGGAAUAAGAAGGAUAAGGGAGAAAUAGGUAAAUUGUUGGUUGG [whbob_SS_FMNA__2th171]	45.6	48.4	285	150	70.3
